# Source: PMC4552633
# What was measured:
# [1] = target: clathrin adaptor AP-1, endogenous in 293T cells (detected by its γ-adaptin subunit), O43747;Q9BXS5;P61966; assay: cross-linking co-immunoprecipitation (anti-HA IP), Western blot quantification; details: read off a plot
# [2] = target: clathrin adaptor AP-2, endogenous in 293T cells (detected by its α adaptin subunit), O95782;Q96CW1;P53680; assay: as above; details: read off a plot
# [3] = 293T tetherin Y6,8A cells, PFA (0.05% w/v) cross-linking, 48 h post transfection, parent: est. 1.8
# [4] = 293T tetherin cells, PFA (0.05% w/v) cross-linking, 48 h post transfection, parent: est. 1.5
# [5] = 293T tetherin Y6,8A cells, PFA (0.05% w/v) cross-linking, 48 h post transfection, parent: est. 2.3
# [6] = 293T tetherin cells, PFA (0.05% w/v) cross-linking, 48 h post transfection, parent: est. 0.9
# [7] = 293T tetherin Y6,8A cells, DMSO, PFA (0.05% w/v) cross-linking, 48 h post transfection, parent: est. 2.5
# [8] = 293T tetherin Y6,8A cells, DMSO, PFA (0.05% w/v) cross-linking, 48 h post transfection, parent: est. 1.7
Substance,"response (% relative to input control) [1, 3]","response (% relative to input control) [1, 4]","response (% relative to input control) [2, 5]","response (% relative to input control) [2, 6]","response (% relative to input control) [1, 7]",response (% relative to input control) ([1]; parent: est. 0),"response (% relative to input control) [2, 8]",response (% relative to input control) ([2]; parent: est. 0)
"HIV-1 NL4.3 Vpu-HA (codon optimized, pCR3.1 Vpu-HA) A14L; W22A",0,0.45,0,0,,,,
"HIV-1 NL4.3 Vpu-HA (codon optimized, pCR3.1 Vpu-HA) ELV",0,0.95,0,0,0,0,0,0
"HIV-1 NL4.3 Vpu-HA (codon optimized, pCR3.1 Vpu-HA) L41A; I42A; L45A; I46A",0,0.1,0,0,,,,
"HIV-1 NL4.3 Vpu-HA (codon optimized, pCR3.1 Vpu-HA) N54H; E55G",0,0,0,0,,,,
"HIV-1 NL4.3 Vpu-HA (codon optimized, pCR3.1 Vpu-HA) S52A; S56A",0,1,0,0,0,0,0,0
